Measurements taken from doi:10.1101/2025.08.05.668778 (bioRxiv, 2025).

B1: M5 protein, intact wild type (aa 43–377) (natural protein)
chain: AVTRGTINDPQRAKEALDKYELENHDLKTKNEGLKTENEGLKTENEGLKTENEGLKTEKKEHEAENDKLKQQRDTLSTQKETLEREVQNTQYNNETLKIKNGDLTKELNKTRQELANKQQESKENEKALNELLEKTVKDKIAKEQENKETIGTLKKILDETVKDKIAKEQENKETIGTLKKILDETVKDKLAKEQKSKQNIGALKQELAKKDEANKISDASRKGLRRDLDASREAKKQLEAEHQKLEEQNKISEASRKGLRRDLDASREAKKQLEAEQQKLEEQNKISEASRKGLRRDLDASREAKKQVEKALEEANSKLAALEKLNKELEESKK
notes: source: E. coli BL21 (Gold), purified; not shown: His6, C-terminal, kept
B2: M5 protein fragment (aa 94–175) (domain or fragment)
chain: NEGLKTEKKEHEAENDKLKQQRDTLSTQKETLEREVQNTQYNNETLKIKNGDLTKELNKTRQELANKQQESKENEKALNELL
notes: source: E. coli BL21 (Gold), purified
B3: M6 protein fragment (aa 74–157) (domain or fragment)
chain: NDKLTTENNNLTDQNKNLTTENKNLTDQNKNLTTENKNLTDQNKNLTTENKELKAEENRLTTENKGLTKKLSEAEEEAANKERE
notes: as for B2
B4: M6 protein, intact wild type (aa 43–452) (natural protein)
chain: RVFPRGTVENPDKARELLNKYDVENSMLQANNDKLTTENNNLTDQNKNLTTENKNLTDQNKNLTTENKNLTDQNKNLTTENKELKAEENRLTTENKGLTKKLSEAEEEAANKERENKEAIGTLKKTLDETVKDKIAKEQESKETIGTLKKTLDETVKDKIAKEQESKETIGTLKKTLDETVKDKIAKEQESKETIGTLKKILDETVKDKIAREQKSKQDIGALKQELAKKDEGNKVSEASRKGLRRDLDASREAKKQVEKDLANLTAELDKVKEEKQISDASRQGLRRDLDASREAKKQVEKALEEANSKLAALEKLNKELEESKKLTEKEKAELQAKLEAEAKALKEQLAKQAEELAKLRAGKASDSQTPDAKPGNKVVPGKGQAPQAGTKPNQNKAPMKETKRQLPST
notes: as for B1
B5: FbaA (57–130), wild type (domain or fragment)
chain: NWHHIDKDGLIPLGISLEAAKEEFKKEVEESRLSEAQKETYKQKIKTAPDKDKLLFTYHSEYMTAVKDLPASTE
notes: source: E. coli BL21 (Gold), purified; not shown: His6, N-terminal, kept

Experiments:
[1] = biological target: T1, factor H (intact) (human, UniProt P08603 19-1231); experiment: ELISA; M, Enn or FbaA protein coated on wells (20 μg/ml in PBS pH 7.2, overnight 4 °C); soluble intact factor H 10 μg/ml, 1 h, RT; bound FH detected with mouse monoclonal anti-human FH and HRP anti-mouse IgG; uncoated wells subtracted; values normalized to wild type; details: both partners purified
T1 construct: also called FH; intact FH; source: bought: Complement Technology
T1 sequence (P08603 19-1231): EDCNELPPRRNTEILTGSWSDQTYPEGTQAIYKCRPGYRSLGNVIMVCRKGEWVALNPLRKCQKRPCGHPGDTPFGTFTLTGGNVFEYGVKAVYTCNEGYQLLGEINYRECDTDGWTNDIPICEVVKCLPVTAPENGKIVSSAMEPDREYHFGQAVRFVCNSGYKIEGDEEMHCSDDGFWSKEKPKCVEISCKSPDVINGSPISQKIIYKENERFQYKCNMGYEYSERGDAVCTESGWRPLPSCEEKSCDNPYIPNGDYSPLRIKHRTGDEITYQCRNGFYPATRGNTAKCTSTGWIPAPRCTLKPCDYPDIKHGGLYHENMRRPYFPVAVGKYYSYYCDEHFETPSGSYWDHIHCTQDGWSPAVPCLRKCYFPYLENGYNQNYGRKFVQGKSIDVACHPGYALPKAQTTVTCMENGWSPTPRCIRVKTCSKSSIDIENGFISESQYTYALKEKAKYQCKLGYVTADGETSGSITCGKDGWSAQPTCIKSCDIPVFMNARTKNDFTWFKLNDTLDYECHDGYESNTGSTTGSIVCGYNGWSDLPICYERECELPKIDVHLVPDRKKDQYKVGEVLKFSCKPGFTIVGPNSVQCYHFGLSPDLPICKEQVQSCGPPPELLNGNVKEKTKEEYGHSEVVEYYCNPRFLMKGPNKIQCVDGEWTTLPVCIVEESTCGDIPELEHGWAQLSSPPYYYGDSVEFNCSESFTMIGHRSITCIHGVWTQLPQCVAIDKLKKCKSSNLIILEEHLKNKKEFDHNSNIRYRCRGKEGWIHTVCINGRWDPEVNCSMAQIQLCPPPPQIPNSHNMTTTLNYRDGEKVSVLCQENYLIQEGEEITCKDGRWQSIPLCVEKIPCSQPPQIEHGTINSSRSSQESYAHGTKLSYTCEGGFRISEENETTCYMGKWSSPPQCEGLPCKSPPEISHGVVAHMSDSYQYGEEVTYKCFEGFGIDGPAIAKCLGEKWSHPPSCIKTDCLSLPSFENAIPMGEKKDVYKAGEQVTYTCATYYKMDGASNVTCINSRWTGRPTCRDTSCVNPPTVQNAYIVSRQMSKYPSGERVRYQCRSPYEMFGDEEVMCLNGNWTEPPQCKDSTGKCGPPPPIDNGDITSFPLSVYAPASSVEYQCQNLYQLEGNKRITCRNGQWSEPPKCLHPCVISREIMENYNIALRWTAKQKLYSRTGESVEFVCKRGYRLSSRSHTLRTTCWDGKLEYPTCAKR

[2] = biological target: the molecule itself; experiment: crystal structure

Binder	binding result [1]	stoichiometry N [2]
B1	binds	
B2		2
B3		2
B4	binds	
B5	binds	
